Reference: paper PMC12713436

Tests used:
[1] = biological target: secretory immunoglobulin A1 (sIgA1) from human colostrum (human (endogenous in colostrum)) (UniProt P01591)
[2] = biological target: secretory immunoglobulin A1 (sIgA1) from human colostrum (human (endogenous in colostrum)) (UniProt P01591); experiment: dynamic light scattering; sIgA1 titrated with FTL (0.06–1.94 mg/mL); Z-average diameter against FTL:sIgA1 molar ratio; Hill fit; apparent KD
[3] = biological target: secretory immunoglobulin A1 (sIgA1) from human colostrum (human (endogenous in colostrum)) (UniProt P01591); experiment: BLI; Octet RED96; sIgA1 immobilised on AR2G biosensors via amine coupling, FTL as analyte; 25 °C; PBS with 0.02% Tween-20; global fit, 1:2 bivalent analyte model
[4] = biological target: frutalin (FTL), galactose-specific jacalin-related lectin from Artocarpus altilis (syn. Artocarpus incisa) seeds (Artocarpus altilis (syn. Artocarpus incisa)); experiment: SEC; FTL alone on a Superdex column equilibrated in PBS + 50 mM D-galactose; single peak at Ve = 15.57 mL; apparent mass from calibration; oligomer of alpha-beta protomers

frutalin (FTL), galactose-specific jacalin-related lectin from Artocarpus altilis (syn. Artocarpus incisa) seeds (natural protein)
hemagglutination titer (rabbit erythrocytes) of the preformed FTL–sIgA1 complex at 1 mg/mL, with 0 to 200 mM D-galactose (∼2^8 at 200 mM); free FTL ∼2^17 (∼2^9 at 200 mM galactose); sIgA1 alone ∼2^4 [1]: 65500 HU
stoichiometry N [2]: 1 to 1.5 FTL:sIgA1
koff [3]: 0.00214 s⁻¹
kon [3]: 596000 M⁻¹ s⁻¹
stoichiometry N [4]: 2
